According to a protein production outcome set (Wang et al. 2014):

Experiment: label from the status in PepcDB records
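Also: failed if final PepcDB status was selected cloned or expressed and not failed if soluble or beyond.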

| Sequence | protein production |
| --- | --- |
| MSMVVDSVPDSSTFVGKTIRPVAAVSIHGIVFDGERLLAVDSKNGYLLEIDPYTNNTKLLNGQYWQEFIGATGLAIADRQLWFSSGQYVYTCNLEGPDLKPEVFAWFDDPVNGVAIWESTVYITCHKRGHIWVYGRDTRKLVATFYSPGIGVENITVRGEELWVCDSAEQSVYCLDRATGEINFSLITPFESPTGLAFYDDQAVGKATLYVAYVQQEPYVRDNPNADPNHELMYRETTFIHPLYFYNDPHQCCAFSNGYLVEMRYVEELAPLDPVDLKQVEWRMALPAVTPRQRIRKIESVGLPFSRIDDVNGQKVAVFEFDQLDLDSRAVFGWRVEMEVWGIKYRLKPSDCEHLPALPEGFADRYLVDNDNLSMETDIIIRAAAEAIGRETNLLRQMFNIRNYVYDRLSYGIKPHIDTPDLALRRGVGSCGEYVGVLLALARLNGIACRTAGRYKCPPHPLQRNLPMEPDFNHVWFEFYLPGIGWLPMESNPDDTNDGGPYPTRFFMGLAWYHAETAKDVPFEQLLSQGIPVNKQVVSIGELAINHVQFTILEELDPAAHLAHLEHHHHHH | not failed |
| MKHLVICIALLTVGACCFAQQKKVASHKAASGNPVFQGWYADPEGIIYDDTYWIFPTWSDLYENQTFFDCFSSKDLVNWTKHASVLDTTAVKWAKKAMWAPSVIRKNGKYYIFFGANDVHEGEIGGIGVAVSDRPEGPYKDLLGKPLINEIVNGAQPIDQFVYNDNGHYYMYYGGWGHCNVVQLNDDFTGLVPFEDGTVYKEVTPENYVEGPFMFKKDGKYYFMWSEGGWGGPDYSVAYAISDSPFGPFKRVAKILQQDPSVATSAGHHSLLHAPGTDDYYIVYHRRPLNDNARDHRVTCIDKMTFDKDGFINPVKMTFEGVPAQKIKKSKKK | failed |
| MQKLFLTFFYSGSVKKASGTFGTIAALIPAFFILKYLGINTLFLLSILIFVASIRVIDDYEKKTGIHDDKHIVIDEVAGVFLACAIAASVENSIVNFILAFVLFRLFDITKPSIIGKIDKKVKGGLGVMLDDMLAGLFAGLLSAVIYGFLLKFNLVFWDINLKDLF | failed |
| MSYEFYGKTEQEAIKKAMRDLELKEGEFDVEILDKERVGFLFKKEMIKIRVSPHAKEVKKDDFEIKIGDEICDKILEFVKEMLIKMGYSVHLTIEPKEGGYVKISIETDSPNILIGREGKNLDSLQLLTNVYASKLIGENGAFNRVILDIGDYRERFKSRFINLAINSFHKVKRTRRSILLPSMNPFERRIVHTTLNRYSDIKTESEGDGNIKRIRVSYVRNNRYGINNSRGYQKRDIGFKK | failed |
| MTLPRRSGIRALPARGPTMESILGSFLLVAASEMGDKTQLLAFSLATRFRKPWPIMAGILVATLANHGLASSLGAWISANVPARMLAGVLALTFLMFGLWTLRPDSLEASKGPERFGAFLTTTVLFFLAEMGDKTQLATVALAARYGDVIRVTAGTTLGMLAADGLAVFLGEKLAARVSSARIRWAAAGLFFLFGLISAWAAIFG | failed |
| MIMKKYWKLMLMAVGMSAAFTLASCNDDKDVVIDQIYYISTDPSATTYPTTFSVSLVDNSVAGRPFFYVVGKSTMRVDRNTTLRVEEDSKLVEKYNETYGKKYLPFPEGTYSFSTNEVTINQGDNFSSDTIFISFSNWDKLSKIDKYLLPVSLKAVDDKGAVSMDRNLIYFIADFSTTNTGYNKPAAWKPLDRTDWDVSFSYAYGYDEAQFGGRLAVDGDVSTTWFTWGVVSAGECWWATTLPAPTHLTGFSLTRQTTFGSSYNVREAKVKVKKEGDTEWTEAGLFRFGSFKGNDPQYAVFIPAVENVKEFRIDIVSPADFTGFAELDLYQ | failed |
| MDVDTAFLNSTMDEPIYVKQPPGFVNERNPDYVWELYGGMYGLKQAPLLWNEHINNTLKKIGFCRHEGEHGLYFRSTSDGPIYIAVYVDDLLVAAPSPKIYDRVKQELTKLYSMKDLGKVDKFLGLNIHQSSNGDITLSLQDYIAKAASESEINTFKLTQTPLCNSKPLFETTSPHLKDITPYQSIVGQLLFCANTGRPDISYPVSLLSRFLREPRAIHLESARRVLRYLYTTRSMCLKYRSGSQLALTVYCDASHGAIHDLPHSTGGYVTLLAGAPVTWSSKKLKGVIPVPSTEAEYITASETVMEI | failed |
| MVRKALLFVIDVALTYFAGVVALFSRFGFDFQEMSRYDESVIVYTVISAVVYILNGNYSIVWEYANARDFLILIRGSVISYLSNLAFFYVYRGIVLPRSVGFAVFLGSMVLLVLSRITWQWMIVNGRGKVPGEKRILIIGAGDAGVSILEEFEKHPHLGKIVAFVDDSPRKIGRKVRGVPVFGPIEKTMEFVEKMNVDEIVIAIPSASRAEMERILKSIDLKKVRVKTLPSVRELIEGRVRISHLKEISIEDLLGREEVKVDFHEIGKFLKGKKILVTGAGGSIGSELCKQIARMNPAEIFLLGHGETSIYLINEFLTEHFPEVKKKRIIADVADRKIMEHWLTQLRPDVIFHVAAHKHVPLMEENPLEAFRVNVLGTMNLVELSERLGVKYFVFISTDKAVNPTSVMGLTKRIAELYILSREKNSTNFSIVRFGNVLGSRGSVVEKFRRQIEKGGPVTVTDPRMKRYFMSIPEAVSLILQSLLFSSGKDLFILDMGEQIPILKLAETMIMLSGYTPYQDIKIVFTGIRPGEKMYEELLYPYEVKELTPHSKIFRVKTSVLPGKESVEQAINRMKEAFENSDVKGLLTEMKKLVPEAQINVGSDN | failed |
| MPHFHFSWREKFSVFRMAAEPPEKLVGALVGGLRVLRYLSAAPAGVGVTRVARDLQLNSSTCYNFLKTLVYEGLVTFDESTKTYSIALGLVELAKGVLEQGAYVRLIHPHLEEIARAHRVTATLWQRTSNERVVLVDRADNDSSVRVHMSVGQRLPMYIAALGRCMAANAGLDRDQLEQRFNALRWDDKPPFDEYLAGVQEARKNGYATDAGHYVKGVSTASAAVLDAFGKPVMAISAVGFSAQFTGDALEQLGEDLHERAGRITRALSGGRAGADS | failed |
| MQMAGFGLIAKLRNKIRVKPNNKIQIGKNTRIRYCDIYVNGNNNQLIIHNGANLKGVSIELNGNNCLLEIGENCVIGENCFLSCRESGTKLVIGKECMFSRNVKLMTSDGHDILRDGKRINPAKSIYIGSHVWLADNVTILKGVDIGSGSIIGINSTVTKSIGQYCIAAGNPARKIKDNISWNTTLSY | failed |
| MQPTTRLSFSQRHPFIFGFLLIMVAVALFTGATATFRHLTDAGSFGGPRIGIVRIEGMIGDVRKTLEWMRKLAEDRTVRGVLVRVDSPGGAVAPSQELHDAVKRLAADKPVVVSMGSLAASGGLMVSTGATRIVANPATITGSIGVKMEMPNVQGLMDKIGVARQTLVSGDLKDAGSPFRAMSEAERAYFQSIIMEMYGQFVSMIAEDRNIPVEKVRSFADGRILTGSQALELGLVDKLGSEAAAMDVLLALVDLKGEKPVFIEPPKERSWVREVLESALGIAPPQNMGQPAFLYY | failed |
| MVRMQTKAVMVFKLDEEGNAFYTQDIGDLYIFISRSEPFCVPASSFPGMFSNFVELLDVNENVTVDLSDYSMNGGFGYFGAPAHIPPQKLD | failed |
| GSSGSSGMSSMTQNLREVMKVMFKVPGFDRVLEKVTLVSAAPEKLICEMKVEEQHTNKLGTLHGGLTATLVDSISTMALMCTERGAPGVSVDMNITYMSPAKIGEEIVITAHILKQGKTLAFASVDLTNKTTGKLIAQGRHTKHLGNSGPSSG | not failed |
| AIATYPTNLEIIGGQGGSSFSFTGENNGASLEKIWVWVGGWQIKAVRAWLSDGRDETFGVPSGSHQEYVFTPGECFTSLSLWGNGAGTRLGAIKFKTNKGGEFFAHMTSWGLKTEYPMDVGSGYCLGIVGRGGSDIDCMGFMFLNAVQSTVLTNVNYPTINQLIPKVATEEIKSVSFENKTSVKQEQKVETSKKVIKTSSWSMTKSFSSTFSVEVSAGIPEIAEVSTGFSISFGVESTHSLEQTDEKNETLTTTVEVPPKKKVDVHITIGRASFDLPYTGTVKITCKNGSVLQYETKGQYKGVAYTDIKVNTVEKDL | not failed |
| VATLNESIEAGLEPGAVALILEAFPIEDRVRLWRALPLELHIDVLTEMRADVRFSIINALSEVELKLTLAKLDNLSLIEWADSLPESIINEALALIEKDELELYDQANEYEDDELGRWAERKIITLPFNITVGTAKQLMERYSYDTPQQVYLINRNKQFRGAVNYYEILRSDSGVRLKTLEIETVTVLDSKMTLPEAVEALEHSALPALPVTDADQTLIGEVDWQFALSTQREIYEARLMAGTGMDEGDDLFAPVLKSSQKRGV | not failed |
| MTNDKPFVDLRQYDQSWFDRGRSAWYILLWWLVQAIAFPLTPHFSSNIRCWILRLFGARIGKGVVVRPTARFTFPWKVTIGDYSWVGDDVVFYSLDEIHIGQHCVISQKSYLCTGSHDIQDPTFRLKVAGITIGNGAWVATDCFIAPGVQIGANAVIGARSSVFTSMPTGQVCWGSPCRPQHPRLKE | failed |
| SLANIREIAKRAGISIATVSRHLNNTGYVSEDAREKIQKVVDELNYTPNALARAMFTKNSKTIGLMVPNISNPFFNQMASVIEEYAKNKGYTLFLCNTDDDKEKEKTYLEVLQSHRVAGIIASRSQCEDEYANIDIPVVAFENHILDNIITISSDNYNGGRMAFDHLYEKGCRKILHIKGPEVFEATELRYKGFLDGARAKDLEIDFIEFQHDFQVKMLEEDINSMKDIVNYDGIFVFNDIAAATVMRALKKRGVSIPQEVQIIGFDNSFIGELLYPSLTTINQPIEALAYTIIELLIKIINGEGVLIEDYIMEVKLIERETTISLKDEG | not failed |
| MILSNYPLRDRKDSTMGSKTKIVVIRCKELIAGIILSVIALAILALIVISLMNRNTHDTTPPSGRYTAGVYSSSVILNGNPVDIRVTVDEDNINNIEMVNISDSVTTMYPLIQNSFEEIKSSVIANGGVEGVTYSSENKYTSVMILKAIENALDKCRTY | failed |
| PRPAVSVAPTTEAESFVQDRIEEDGLHVVHFWAPWCANSRNELDNGWAGLVADNPDVTFTFVTVWNDDESGAAMLNDYNLPDRVVEVTQPDLGPSDTEANRRYSFLGLPVTWIPSTWIFHSNGELAFAMNYGEMEMQTVQRLLDATSADW | failed |
| MALRKIAGLYRIEKFIRERPVEKIRQWRQRYSRPIVNDLFAWPEEQEPCCPPDGPLNKAINYILNRRDELSCFLSDGAVPLDNNICERAIRPVVMGRKAWLFAGSLMAGNRAAQIMSLLETAKRNGLEPHAWLTDVLTRLPEWPEDRLEELLPLEGFTFSG | failed |
| MSNHRHDHSLPSDADSRYLVAALTLLAAFMITEIITAVISGSLALLSDAGHMLSDIGAIAIALWAARLTRRRPQGSWTWGWKRAEIMSAAVNGVTLLVVAILVGIEAVRRLVTPPAVGGGLVMVIAAVGVVVNVAVAWLVARANRRSLNVEGAYQHILTDLFGFIGTLVAGLVIVTTGWTRADAIASLIICGLMLRAAWSLLSQTGRILMEVAPASLDLDEVRHHLMDLDHVRSVHDLHAWTVSSDLPALSAHIVVEDSCFADGHAPILLAQIQQCLSGHFDLDHSTLQLEPPRHAGTENQTM | failed |
| MHRKPICAALAIISAATLTTSLAYGMTAVELPAGAPADKPVGKLEQVQAFYDAMPTGVTVTETGRIFVNFPRWGDKVPFTVGEVRDGKVVAYPDLAVNHENPKDPGDGLISVQSVVADGKGRVWLLDTAAPEFAAPRPQGAKLVAVDLATNKIVKRLVFPDNVILPSTYVNDMRFDFRQGSQGTVYVTDSSVSGPGAIIVMDIASGHAVRRLSGAKATSADPAFVPVVEGVPVLGDGPDGTRKPVHVAADGIALSADGKTLYFSPLSSRHLYSVATELLNDSAVNEQQLAAAVQDLGEKGASDGLEADADGAVYAGDYEHNAIRKRLPNGVWQTVAHDPRMLWPDTLSIGPDGYLYFIVNQLHRQAGFNSGHDQRKKPYSLLRVKVATAPAPTH | failed |
| MNFNQFENQNFFNGNPSDTFKDLGKQVFNYFSTPSFVTNIYETDELYYLEAELAGVNKEDISIDFNNNTLTIQATRSAKYKSEQLILDERNFESLMRQFDFEAVDKQHITASFENGLLTITLPKIKPSNETTSSTSIPIS | failed |
